Source: paper doi:10.1101/2021.05.10.443506

What was measured:
[1] = target: mCherry-Nup153-IDR-NLS-LacI; test: LacO array recruitment
[2] = target: mCherry-Med1-IDR-NLS-LacI; test: LacO array recruitment
Chain of mCherry-Med1-IDR-NLS-LacI (Q15648 whole entry): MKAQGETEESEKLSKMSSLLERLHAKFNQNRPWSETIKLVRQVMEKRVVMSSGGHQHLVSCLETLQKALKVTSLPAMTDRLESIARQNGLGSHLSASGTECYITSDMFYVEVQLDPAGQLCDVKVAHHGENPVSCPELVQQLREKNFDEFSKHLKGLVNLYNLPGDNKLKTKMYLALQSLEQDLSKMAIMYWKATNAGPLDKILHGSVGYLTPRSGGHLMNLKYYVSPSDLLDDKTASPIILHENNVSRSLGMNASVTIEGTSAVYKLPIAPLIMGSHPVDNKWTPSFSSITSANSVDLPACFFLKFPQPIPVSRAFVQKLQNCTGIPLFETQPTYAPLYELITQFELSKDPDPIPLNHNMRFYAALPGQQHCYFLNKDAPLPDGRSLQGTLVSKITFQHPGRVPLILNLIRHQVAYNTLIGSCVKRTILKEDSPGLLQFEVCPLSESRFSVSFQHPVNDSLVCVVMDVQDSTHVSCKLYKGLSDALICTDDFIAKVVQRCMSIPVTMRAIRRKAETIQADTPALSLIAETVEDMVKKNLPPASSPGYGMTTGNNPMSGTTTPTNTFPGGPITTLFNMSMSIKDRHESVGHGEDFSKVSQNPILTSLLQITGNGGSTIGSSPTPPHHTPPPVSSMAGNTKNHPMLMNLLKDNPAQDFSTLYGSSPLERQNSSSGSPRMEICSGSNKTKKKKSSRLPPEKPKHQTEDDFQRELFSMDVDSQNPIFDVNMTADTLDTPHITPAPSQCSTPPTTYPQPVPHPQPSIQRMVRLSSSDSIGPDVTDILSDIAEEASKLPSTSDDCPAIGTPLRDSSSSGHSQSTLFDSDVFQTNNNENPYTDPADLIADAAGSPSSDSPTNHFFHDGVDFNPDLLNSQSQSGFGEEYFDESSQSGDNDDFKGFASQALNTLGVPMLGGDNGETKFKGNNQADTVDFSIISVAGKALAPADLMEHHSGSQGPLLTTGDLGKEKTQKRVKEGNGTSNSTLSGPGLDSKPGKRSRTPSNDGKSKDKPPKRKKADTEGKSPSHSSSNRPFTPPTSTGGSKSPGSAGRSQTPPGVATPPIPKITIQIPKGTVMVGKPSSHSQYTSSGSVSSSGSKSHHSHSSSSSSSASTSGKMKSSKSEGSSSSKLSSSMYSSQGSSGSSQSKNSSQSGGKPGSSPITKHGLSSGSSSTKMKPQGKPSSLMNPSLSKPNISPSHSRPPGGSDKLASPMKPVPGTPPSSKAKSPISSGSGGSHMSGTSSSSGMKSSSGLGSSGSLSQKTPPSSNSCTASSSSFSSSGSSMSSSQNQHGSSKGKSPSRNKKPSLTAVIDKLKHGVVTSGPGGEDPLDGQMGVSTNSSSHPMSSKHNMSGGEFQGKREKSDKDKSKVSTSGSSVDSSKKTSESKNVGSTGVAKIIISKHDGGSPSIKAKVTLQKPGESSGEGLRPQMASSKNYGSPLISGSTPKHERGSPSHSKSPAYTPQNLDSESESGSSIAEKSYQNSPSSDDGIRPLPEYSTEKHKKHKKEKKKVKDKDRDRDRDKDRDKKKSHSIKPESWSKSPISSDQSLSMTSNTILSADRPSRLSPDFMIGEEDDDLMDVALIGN

Chain of mCherry-Nup153-IDR-NLS-LacI (P49790 2-1475): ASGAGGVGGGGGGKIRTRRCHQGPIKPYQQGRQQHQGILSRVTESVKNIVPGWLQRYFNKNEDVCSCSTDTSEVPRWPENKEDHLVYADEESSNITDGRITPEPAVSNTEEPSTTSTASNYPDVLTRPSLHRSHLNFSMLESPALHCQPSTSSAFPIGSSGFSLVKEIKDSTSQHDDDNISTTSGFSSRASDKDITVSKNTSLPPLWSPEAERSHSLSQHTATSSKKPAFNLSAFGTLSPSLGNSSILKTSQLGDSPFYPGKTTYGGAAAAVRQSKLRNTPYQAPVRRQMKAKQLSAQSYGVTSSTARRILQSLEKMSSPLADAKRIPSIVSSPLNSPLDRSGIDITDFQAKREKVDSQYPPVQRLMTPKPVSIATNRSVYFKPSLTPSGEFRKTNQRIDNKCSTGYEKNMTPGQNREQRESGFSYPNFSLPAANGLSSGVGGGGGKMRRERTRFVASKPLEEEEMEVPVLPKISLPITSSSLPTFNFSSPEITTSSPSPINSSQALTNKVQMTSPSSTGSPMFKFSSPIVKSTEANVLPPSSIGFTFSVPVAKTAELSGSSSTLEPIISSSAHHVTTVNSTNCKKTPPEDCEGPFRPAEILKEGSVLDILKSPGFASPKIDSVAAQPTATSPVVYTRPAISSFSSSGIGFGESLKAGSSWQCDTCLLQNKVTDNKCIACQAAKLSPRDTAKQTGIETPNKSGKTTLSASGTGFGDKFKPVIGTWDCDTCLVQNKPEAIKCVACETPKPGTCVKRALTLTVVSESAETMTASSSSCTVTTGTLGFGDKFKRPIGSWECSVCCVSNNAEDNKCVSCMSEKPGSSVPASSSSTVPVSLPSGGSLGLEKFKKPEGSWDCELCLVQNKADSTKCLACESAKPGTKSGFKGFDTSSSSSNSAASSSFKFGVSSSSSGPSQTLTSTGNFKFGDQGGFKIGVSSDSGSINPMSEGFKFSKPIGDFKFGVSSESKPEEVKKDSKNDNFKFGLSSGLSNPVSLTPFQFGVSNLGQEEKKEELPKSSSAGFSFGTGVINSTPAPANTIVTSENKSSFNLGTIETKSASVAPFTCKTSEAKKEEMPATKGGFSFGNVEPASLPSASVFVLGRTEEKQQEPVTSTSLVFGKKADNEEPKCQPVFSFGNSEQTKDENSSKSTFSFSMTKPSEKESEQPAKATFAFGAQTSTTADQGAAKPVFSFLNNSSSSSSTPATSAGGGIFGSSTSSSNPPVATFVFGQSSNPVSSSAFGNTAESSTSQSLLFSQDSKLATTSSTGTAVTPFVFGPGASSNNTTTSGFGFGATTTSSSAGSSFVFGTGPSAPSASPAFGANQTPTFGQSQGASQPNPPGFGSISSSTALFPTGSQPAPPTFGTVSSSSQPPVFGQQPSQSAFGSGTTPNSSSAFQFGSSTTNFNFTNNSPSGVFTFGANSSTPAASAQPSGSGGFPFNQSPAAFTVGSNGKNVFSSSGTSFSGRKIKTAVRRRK
Chain of EGFP-Med1-NLS (Med1 IDR fused to GFP) (domain or fragment) (Q15648 whole entry, the tested form may be a part): as the sequence (Q15648 whole entry) above

percent of cells with colocalized GFP and mCherry signal [1] | percent of cells with colocalized GFP and mCherry signal [2] | Substance
13 % of cells | – | EGFP-Med1-NLS (Med1 IDR fused to GFP) (domain or fragment)
67 % of cells | 53 % of cells | EGFP-PolII CTD52-NLS (domain or fragment)
